We go through one molecule from article PMC10907630, “Phosphorylation regulates tau’s phase separation behavior and interactions with chromatin”.

In data set [1] the target is T1, tau 1N4R (UniProt P10636-7 1-412). Kind of data set: fluorescence anisotropy; 10 mM NaCl; Hill fit; EMSA: 20 nM DNA or nucleosome, 20 mM HEPES pH 7.2, 10 mM NaCl (or 150), 0.5 mM TCEP, 0.1% Tween-20, 5% sucrose, room temperature 20 min; FA: 10 nM DNA, same buffer with 10 mM NaCl, 0.01% NP-40 substitute, room temperature 10 min. Particulars: protein: recombinant; tags: none stated; label: 5' 6-FAM on strand 1; blunt. For orientation: In fluorescence polarisation assays a small probe gives low polarisation when free and higher when bound to something large.

For data set [2], the target named is T1, tau 1N4R. Kind of data set: EMSA; 10 mM NaCl; Hill fit; EMSA: 20 nM DNA or nucleosome, 20 mM HEPES pH 7.2, 10 mM NaCl (or 150), 0.5 mM TCEP, 0.1% Tween-20, 5% sucrose, room temperature 20 min; FA: 10 nM DNA, same buffer with 10 mM NaCl, 0.01% NP-40 substitute, room temperature 10 min. Particulars: protein: recombinant; tags: none stated; label: 5' 6-FAM on strand 1; blunt. Background: A gel shift assay detects complexes by their altered migration in electrophoresis.

As usually defined, the Kd is the constant that tells how readily two partners part at equilibrium.

T1 sequence (P10636 other isoform, or with tags, fused parts or gaps): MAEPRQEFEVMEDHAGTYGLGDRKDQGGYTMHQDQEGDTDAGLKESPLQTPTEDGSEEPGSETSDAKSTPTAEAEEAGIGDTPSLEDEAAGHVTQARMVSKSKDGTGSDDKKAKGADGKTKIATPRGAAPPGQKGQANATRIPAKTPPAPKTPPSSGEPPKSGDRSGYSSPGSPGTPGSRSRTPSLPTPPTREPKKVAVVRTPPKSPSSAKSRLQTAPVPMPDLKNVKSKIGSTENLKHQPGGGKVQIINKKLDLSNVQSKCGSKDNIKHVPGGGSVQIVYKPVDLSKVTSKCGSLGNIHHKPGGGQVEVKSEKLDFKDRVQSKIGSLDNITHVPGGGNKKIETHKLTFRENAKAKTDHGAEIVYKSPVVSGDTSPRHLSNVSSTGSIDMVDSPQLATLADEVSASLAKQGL

B1: 22 bp DNA (dsDNA)
DNA 1: ATTTAGAAATGTCCACTGTAGG
DNA 2: CCTACAGTGGACATTTCTAAAT
With B1, the Kd came out at 6.3 ± 0.5 nM in the data set with tau 1N4R [1] and 112 ± 3.7 nM with tau 1N4R [2].
